According to patent US20040043959A1, “Combination therapies for treating methylthioadenosine phosphorylase deficient cells” (priority 2002, published 2004):

Columns and labels:
Test in all cases: MTAP substrate assay, coupled spectrophotometric (adenine, xanthine oxidase)
Type in all cases: biochemical, human
Settings in all cases: other: substrate of MTAP, 37° C.
[1] = substrate: CSC[C@@H]1C[C@@H](O)[C@H](n2cnc3c(N)ncnc32)O1
Method: (§1) An enzymatic assay to determine the activity of MTAP against a given substrate was performed. Human MTAP containing an N-terminal six-histidine tag was expressed in E. coli BL21 DE3 cells. The protein was purified to homogeneity by Ni2+ affinity chromatography. Enzymatic activity was measured using a coupled spectrophotometric assay designed to monitor the reaction product adenine (Savarese, T. M., Crabtree, G. W., and Parks, R. E. Jr., (1980) Biochem. Pharmacol. 30, 189-199). Various concentrations of the indicated 5′-deoxymethylthio adenosine (MTA) or substrate were incubated in assay buffer (40 mM potassium phosphate buffer, 1 mM, and DTT 0.8 units/ml xanthine oxidase coupling enzyme) for 5 minutes at 37° C. The reaction was initiated by the addition of MTAP. The exact concentration of enzyme used varied for each substrate tested and ranged from 2 nM to 500 nM. Activity as a function of enzyme concentration was determined for each substrate tested to ensure that the appropriate enzyme concentration was used. Activity was detected by continuous monitoring of absorbance at 305 nm for 10 minutes (ΔE=15,500 M^−1).
(§2) Library compounds (10 and 50 uM) were tested using the assay described above with 2 nM MTAP enzyme. The resultant initial velocities are reported as a percentage of the initial velocity observed when MTA is the substrate. MTA controls, 10 and 50 uM concentrations, were run on each plate alongside the library compounds.

[2] = substrate: CSC[C@H]1O[C@@H](n2cnc3c(N)ncnc32)[C@@H](O)[C@@H]1O
Method: as §1, §2

[3] = substrate: Nc1ncnc2c1ncn2[C@@H]1O[C@H](CSc2ccc3ccccc3n2)[C@@H](O)[C@H]1O
Method: as §1, §2

[4] = substrate: CCOC(=O)CCSC[C@H]1O[C@@H](n2cnc3c(N)ncnc32)[C@H](O)[C@@H]1O
Method: as §1, §2

[5] = substrate: Cc1cccc(CSC[C@H]2O[C@@H](n3cnc4c(N)ncnc43)[C@H](O)[C@@H]2O)c1
Method: as §1, §2

[6] = substrate: CSC[C@H]1O[C@@H](n2cnc3c(N)ncnc32)[C@H](O)[C@@H]1O
Method: as §1, §2

[7] = substrate: CSC[C@H]1O[C@@H](n2cnc3c(N)ncnc32)C[C@@H]1O
Method: as §1, §2

[8] = substrate: COc1ccc(CSC[C@H]2O[C@@H](n3cnc4c(N)ncnc43)[C@H](O)[C@@H]2O)cc1
Method: as §1, §2

[9] = substrate: CSC[C@H]1O[C@@H](n2cnc3c(N)ncnc32)[C@H](N=[N+]=[N-])[C@@H]1O
Method: as §1, §2

[10] = substrate: Cc1cccc(SC[C@H]2O[C@@H](n3cnc4c(N)ncnc43)[C@H](O)[C@@H]2O)c1
Method: as §1, §2

[11] = substrate: COC[C@H]1O[C@@H](n2cnc3c(N)ncnc32)[C@H](O)[C@@H]1O
Method: as §1, §2

[12] = substrate: COc1ccc(OC[C@H]2O[C@@H](n3cnc4c(N)ncnc43)[C@H](O)[C@@H]2O)cc1
Method: as §1, §2

[13] = substrate: Nc1ncnc2c1ncn2[C@@H]1O[C@H](CSCc2cccs2)[C@@H](O)[C@H]1O
Method: as §1, §2

[14] = substrate: Nc1ncnc2c1ncn2[C@@H]1O[C@H](CSC2CCCCC2)[C@@H](O)[C@H]1O
Method: as §1, §2

[15] = substrate: Nc1ncnc2c1ncn2[C@@H]1O[C@H](CSCc2ccc(Cl)cc2)[C@@H](O)[C@H]1O
Method: as §1, §2

[16] = substrate: CC(C)CSC[C@@H]1O[C@H](n2cnc3c(N)ncnc32)[C@H](O)[C@@H]1O
Method: as §1, §2

[17] = substrate: Nc1ncnc2c1ncn2[C@@H]1O[C@H](CSCCc2ccccn2)[C@@H](O)[C@H]1O
Method: as §1, §2

[18] = substrate: COc1ccc(SC[C@H]2O[C@@H](n3cnc4c(N)ncnc43)[C@H](O)[C@@H]2O)cc1
Method: as §1, §2

[19] = substrate: Nc1ncnc2c1ncn2[C@@H]1O[C@H](CSc2nccs2)[C@@H](O)[C@H]1O
Method: as §1, §2

B1: Human MTAP (Homo sapiens) (protein)
chain: MASGTTTTAVKIGIIGGTGLDDPEILEGRTEKYVDTPFGKPSDALILGKIKNVDCVLLARHGRQHTIMPSKVNYQANIWALKEEGCTHVIVTTACGSLREEIQPGDIVIIDQFIDRTTMRPQSFYDGSHSCARGVCHIPMAEPFCPKTREVLIETAKKLGLRCHSKGTMVTIEGPRFSSRAESFMFRTWGADVINMTTVPEVVLAKEAGICYASIAMATDYDCWKEHEEAVSVDRVLKTLKENANKAKSLLLTTIPQIGSTEWSETLHNLKNMAQFSVLLPRH
notes: six-histidine tag (His6) (N); made in house; host or cells: E. coli BL21 DE3
Km [1]: 3.9 µM | kcat [1]: 0.004 s⁻¹ | Km [2]: 106 µM | kcat [2]: 0.006 s⁻¹ | Km [3]: 6.9 µM | kcat [3]: 3.16 s⁻¹ | Km [4]: 4.3 µM | kcat [4]: 1.54 s⁻¹ | Km [5]: 4 µM | kcat [5]: 1.82 s⁻¹ | Km [6]: 2.233 µM | kcat [6]: 3.97 s⁻¹ | Km [7]: 3.3 µM | kcat [7]: 0.76 s⁻¹ | Km [8]: 3.7 µM | kcat [8]: 3.8 s⁻¹ | Km [9]: 3600 µM | kcat [9]: 0.04 s⁻¹ | Km [10]: 2 µM | kcat [10]: 2.4 s⁻¹ | Km [11]: 250 µM | kcat [11]: 0.006 s⁻¹ | Km [12]: 10 µM | kcat [12]: 0.54 s⁻¹ | Km [13]: 6 µM | kcat [13]: 4.6 s⁻¹ | Km [14]: 3.5 µM | kcat [14]: 1.57 s⁻¹ | Km [15]: 3.9 µM | kcat [15]: 3.3 s⁻¹ | Km [16]: 3.1 µM | kcat [16]: 2.3 s⁻¹ | Km [17]: 10.2 µM | kcat [17]: 1.01 s⁻¹ | Km [18]: 7 µM | kcat [18]: 0.8 s⁻¹ | Km [19]: 3.4 µM | kcat [19]: 2.49 s⁻¹
